Laboratory results as given in the DeepSol protein solubility set.

assay: soluble on expression in E. coli; label from the status in PepcDB or PDB records

| Sequence | soluble on expression in E. coli |
| --- | --- |
| MPKNDLLLRSLRGEPIGRFPVWLMRQAGRYMPEYRKIRNRVKNFLELCKNVDLATEISLLPLKILGVDAIIIFSDILVPLEPLGVKVEFVEGEGPKLSWSGKVSDLKKYDPSQNAYVYEIIKRVKEAQDEVPVIGFAGAPFTLLSYLIEGGASKDFKSTKLFMWENPKEYKRLMDILTETVLAYLKEQIKAGADVVQIFDSWVNNLSLEDYGEYVYPYVNYLISELKDFSDTPVIYFFRGSSSFIDLAVDYRADALSVDWSVDIPELFKIYDKGFQGNLEPAVLYASEEVIEEKTLGLLRRIPVKTRYVFNLGHGLAPDMELEKVKYLVDLVKSFPLT | soluble |
| MPKVGMQPIRRQQLIQATLTAVDQVGMGDASIALIARLAGVSNGIISHYFQDKNGLIAATMRHLMNALIQNVRERRQALTEDSPRAHLQVIIEGNFDASQVSGPAMKTWLAFWATSMHHPSLHRLQRINDHRLYSNLCCQFRRTLPLEQARNAARGLAALIDGLWLRGALSGDAFDTEQAQRIAYEYMDFQLAKSAS | not soluble |
| MPKYYEDKPQGGACAGLKEDLGACLLQSDCVVQEGKSPRQCLKEGYCNSLKYAFFECKRSVLDNRARFRGRKGY | not soluble |
| MPLGSLFDKTYDEMHCNQKSWEMAERQLMEDAVNVALQKNNLTKDDIDLLLAGDLLNQNVTANYVARHLKIPFLCMFGACSTSMETVAVASALVDGGFAKRALAATSSHNATAERQFRYPTEYGGQKPDTATSTVTGSGAVVISQTPGDIQITSATVGKVSDLGITDPFDMGSAMAPAAADTIKQHFKDLNRTADDYDLILTGDLSGVGSPIVKDILKEDGYPVGTKHDDCGLLIYTPDQQVFAGGSGCACSAVVTYSHIFKQLREGKLNRVFVVATGALLSPTMIQQKETIPTIAHGVVFERAGGASLEHHHHHH | not soluble |
| MPLHVVLYQPEIPANTGNIARTCAATDTSLHLIRPLGFSTDDKMLKRAGLDYWPYVNISYYDSLDELFARFPEGEFYFITKFGRRYYDSFDFSDTEKHIFFVFGRETTGLPKELLEANMDRCLRIPMNDKVRSLNLSNTAAILVYEALRQQRFYGLS | not soluble |
| MPLLYLNTRECRWYLMGEGEMKKIAAISLISIFLISGCAVHNDETSIGKFGLAYKSNIQRKLDNQYYTEAEASLARGRISGAENIVKNDAAHFCVTQGKKMQIVDLKTEGAGLHGVARLTFKCGE | not soluble |
| MPLQVDDVAERAFVRIVGALRSVRVTSERSQNSLSTFLPVRGRAISEWETGAIQPKLSHLIQWSWELDRRLVIVGRDGELRNDSLRQRPGESWEVFERRRLATPLRNRRQAMGMAQGELADLVGVTRDSIQRWELVRVPPRPIALIVWAQKLG | not soluble |
| MPLVVNVLSTPLNAQPTRTAGFTLPEMMLALSFGSLIALSTAQVLPKLSQQISVLQQHYRLELVMNQAMGAMEKDLRRAGFCHGKCQGEAITIEHYLGETAHSCLIVAYDLNCNGRWEGAKHQESEYFGYRLRNKALESQRGELNCHGRGWEKLFDPRDVTVTHFSVTPLSGQLFKLRLVGHKTGNPAIHHQVTYLIRGNNV | not soluble |
| MPMLDMIVSRVITLLQGRESRSLRVTQAELAAGLSKTVYLHNAQLILPLPDLAFIQSLVAYDHHHPAVSTVLEAWAYGVRLHLQIHQQLLTALPLRELRRLPVTLTDHMSTPVKLAAAAGLSYASVIHWHDCWVLLEKQTLITALAREVMERQNIKLIWQE | not soluble |
| MPMNTSKQSNTVKQLITSLDNFEPSRLTIKDFQEGKGVGPKMAFLRYNHPSLGEDTSLMLQTPWITLTSGGIPRYNEQYHKNDKDRAYLRLPLEEGTDFFNKITALDEQFSSDEFKKEKFGKLYKKYSMYPCVKITEQEEGDTRDPLPPSLKLRFSLVWNEEDKDACEINTQVFTSKMEDGKRTRTPVPVSSLKDMESLVRLGAKLRLIVRPVSAWMNPKKEYGIKWKIQKMEVEPSTAGNALMKEFYETDAFIDSDDEEDVELPPSATGKKTSTKTTKEDDEDEDDDDDDDDDDVGEKSEDSDEASDEESDEESDEDSEEDSPDIPVRKSKGKGKSKGLDL | not soluble |
| MPMPSEKTLVIIPTYNELENLPLITGRVRKANPNVDILIVDDNSPDGTGEAADALAASDSHIKVLHREGKGGLCGAYVAGFQWGLERDYTVLCEMDADGSHAPEQLHLLLAQVDNGADLVIGSRYVPGGKVVNWPKNRWVLSKGGNIYISLALGAGLSDMTAGYRAFRREVLETVDLNELSNAGYIFQVDMAWRVIQLGFDVREVPITFTEREIGESKLDGSFVKDSLLEVTKWGIHHRKEQITNLYTESSRLIRHEISSFRKKHLI | not soluble |
| MPNDLKKELRELKETLEYLKKSFEVISQLAQAYIRLLNVYAEYGDLGIDVVIPEIKHDPIARDIVKILFDLRRANVSQIARELKGRRGKASRNTVRKKLKELEKLGVVKEVPGERGSVYTLSREVVKKWLDLIGIPINLLLEHHHHHH | soluble |
| MPNEQKRFVTGPAGRLETVVTLPEGAPRGLAIVAHPHPLYQGSMDNKIVYILSRAFIEQQYITVKFNFRGVGASEGSYAEGKGEIEDVMAVTQAMREQYDTGPEPLPLTLAGFSFGGAVQAHVAQQLKPSRLVLVAPSVERLQAPPVVDHARHILVIQGDQDTIVPLQSILNWAAPQTLPVTVIPGAEHFFHGKLHVLKNVILQSCSISQAATSLYP | not soluble |
| MPPKLRNFDKSMEKYTDVVLVVKQERFYVSRAILSEHCTYFQSLFCGDSNYQEHIISDVEPQDFQKFLEVVHGEPAIFEATVQKILPLAQKFGSKTVLQKCERFLITISTVRLSTKWNLAKQYGLDELQAHCKLEFKTAQIVRKNPQPEPKSLAYSDKFIFDHSFEKVDGLAEGDMRRSQPITHLDFTWTIYITRKNQHLRVSLCCGKAHLTSDWTVRADFKMTLTAKGSPDLVSDTKGFFHLDSEKNFYWELGQEVEWDEIRDKCLADGKLEVETRVRIVKIRELPVEEFKPPRIVTVNAVKSYEGVLSDYIRVTPLTQQAKTSAPAETPDLQTPPRQQASAKPQASPAKSAGAPQLPQKVPLFPSGGAPSSPSAPEAPSEPPPPKIYPTLGANAPPAPPVQGKKFILKNVFGNVEAMKCHTAMACQKAVAYDFEWNLIISQKNNRLHVSLCCSKSNVTSEFRILADFELIIAGKNGGRPLKSKTNGCFNIEKTKNSSQELGQDVEWSTIVYDYMVDGRLTVEAHVNITRVTCLDAPKFKKLRNFDATGNSWDVMLIVAGQRFFVLKEILISNSARFKNIISKINFTAAPSTEIKLPDSSADHFQNFLEACYGDPSINDDTVHGILKIAQSYEAAGIVKRCEEYVIKYSKKTLEQKEKLAKHHNLKTLKAHCDYWKSRRKCC | not soluble |
| MPPSLRKAVAAAIGGGAIAIASVLITGPSGNDGLEGVSYIPYKDIVGVWTVCHGHTGKDIMLGKTYTKAECKALLNKDLATVARQINPYIKVDIPETMRGALYSFVYNVGAGNFRTSTLLRKINQGDIKGACDQLRRWTYAGGKQWKGLMTRREIEREICLWGQQ | soluble |
